Measurements taken from paper PMC10148881, “Recognition of an Ala-rich C-degron by the E3 ligase Pirh2” (Nature Communications, 2023).

Target: Ala6/C-degron peptide (sequence: …)
Experiment: ITC

**Q.** How did the Kd turn out when WT Pirh2 I110D was run?
**A.** Its Kd is 40 µM.
